Like-named read-outs stand apart in the source and are kept apart here.
Legend:
Experiment in all cases: SPR
ClpA = target: T1, ClpA (Escherichia coli, UniProt P0ABH9 1-758)
T1 sequence: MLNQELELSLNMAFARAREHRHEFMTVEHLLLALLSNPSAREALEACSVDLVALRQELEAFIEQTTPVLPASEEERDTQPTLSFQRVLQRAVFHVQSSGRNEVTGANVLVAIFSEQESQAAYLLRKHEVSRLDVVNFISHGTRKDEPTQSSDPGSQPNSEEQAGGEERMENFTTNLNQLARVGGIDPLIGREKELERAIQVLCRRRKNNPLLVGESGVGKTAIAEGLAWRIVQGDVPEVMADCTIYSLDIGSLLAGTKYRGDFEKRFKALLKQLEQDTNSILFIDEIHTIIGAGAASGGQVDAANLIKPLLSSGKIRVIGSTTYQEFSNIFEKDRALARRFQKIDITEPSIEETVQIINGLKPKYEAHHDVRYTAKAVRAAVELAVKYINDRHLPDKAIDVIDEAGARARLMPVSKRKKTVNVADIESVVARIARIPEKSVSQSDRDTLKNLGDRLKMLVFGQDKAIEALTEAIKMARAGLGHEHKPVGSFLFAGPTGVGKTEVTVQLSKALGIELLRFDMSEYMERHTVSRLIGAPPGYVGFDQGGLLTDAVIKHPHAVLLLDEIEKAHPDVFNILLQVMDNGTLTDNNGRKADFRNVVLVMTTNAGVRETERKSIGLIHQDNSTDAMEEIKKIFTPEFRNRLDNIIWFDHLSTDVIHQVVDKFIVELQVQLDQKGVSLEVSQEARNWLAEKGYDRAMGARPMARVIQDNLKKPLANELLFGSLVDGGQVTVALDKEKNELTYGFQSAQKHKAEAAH

Lon [1] = target: T2, Lon (Escherichia coli, UniProt P0A9M0 1-784)
TrfA G254D/S267L = target: T3, TrfA G254D/S267L (plasmid RK2, UniProt P07676 98-382, G254D;S267L)
T3 sequence: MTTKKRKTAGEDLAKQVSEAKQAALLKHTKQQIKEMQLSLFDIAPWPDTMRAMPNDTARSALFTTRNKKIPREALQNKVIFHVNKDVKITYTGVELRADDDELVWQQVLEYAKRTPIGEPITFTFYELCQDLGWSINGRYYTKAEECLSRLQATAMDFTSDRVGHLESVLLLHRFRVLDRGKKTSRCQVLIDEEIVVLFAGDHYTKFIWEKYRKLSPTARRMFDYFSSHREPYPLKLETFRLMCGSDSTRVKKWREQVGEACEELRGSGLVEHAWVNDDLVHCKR

TrfA wt (His6-TrfA-33) = target: T4, TrfA wt (His6-TrfA-33) (plasmid RK2, UniProt P07676 98-382)
T4 sequence: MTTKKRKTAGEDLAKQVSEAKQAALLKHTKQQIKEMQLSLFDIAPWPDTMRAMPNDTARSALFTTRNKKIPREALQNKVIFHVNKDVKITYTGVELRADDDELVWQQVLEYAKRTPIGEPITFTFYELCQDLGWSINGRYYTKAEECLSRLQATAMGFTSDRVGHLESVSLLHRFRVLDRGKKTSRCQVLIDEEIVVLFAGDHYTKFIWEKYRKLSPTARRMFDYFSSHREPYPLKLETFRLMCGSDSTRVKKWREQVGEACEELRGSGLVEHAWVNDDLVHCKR

Lon [2] = target: T2, Lon; remark: listed apart in the source
[3] = target: Lon;TrfA P151S/G254D/S267L (Escherichia coli;plasmid RK2, UniProt P0A9M0;P07676 1-784;98-382, |P151S;G254D;S267L)

Measured: binding result

B1: frag1 (five RK2 oriV iterons, 129 bp) (dsDNA)
DNA 1: CCTGCGGTATTGACACTTGAGGGGCGCGACTACTGACAGATGAGGGGCGCGATCCTTGACACTTGAGGGGCAGAGTGATGACAGATGAGGGGCGCACCTATTGACATTTGAGGGGCTGTCCACAGGCAG
DNA 2: CTGCCTGTGGACAGCCCCTCAAATGTCAATAGGTGCGCCCCTCATCTGTCATCACTCTGCCCCTCAAGTGTCAAGGATCGCGCCCCTCATCTGTCAGTAGTCGCGCCCCTCAAGTGTCAATACCGCAGG
binds: ClpA | Lon [1] | TrfA G254D/S267L | TrfA wt (His6-TrfA-33)

B2: frag2 (pUC19 fragment, 129 bp) (dsDNA)
DNA 1: AGCTCACAATTCCACACAACATACGAGCCGGAAGCATAAAGTGTAAAGCCTGGGGTGCCTAATGAGTGAGCTAACTCACATTAATTGCGTTGCGCTCACTGCCCGCTTTCCAGTCGGGAAACCTGTCGT
DNA 2: ACGACAGGTTTCCCGACTGGAAAGCGGGCAGTGAGCGCAACGCAATTAATGTGAGTTAGCTCACTCATTAGGCACCCCAGGCTTTACACTTTATGCTTCCGGCTCGTATGTTGTGTGGAATTGTGAGCT
binds: ClpA | Lon [2] | [3]
